In patent publication CN110903395A (SICHUAN KELUN BOTAI BIOMEDICAL CO LTD, dated 2020):
Changes are numbered by the printed parent chain. Each block holds one binder with its values, some of them ahead of it.

Biological target: T1, Trop-2-mFc (human, UniProt P09758 27-274)
T1 construct: Made in-house by 四川科伦博泰; Coated at 1 μg/ml on the ELISA plate; also called 配体Trop-2-mFc
T1 sequence (looked up): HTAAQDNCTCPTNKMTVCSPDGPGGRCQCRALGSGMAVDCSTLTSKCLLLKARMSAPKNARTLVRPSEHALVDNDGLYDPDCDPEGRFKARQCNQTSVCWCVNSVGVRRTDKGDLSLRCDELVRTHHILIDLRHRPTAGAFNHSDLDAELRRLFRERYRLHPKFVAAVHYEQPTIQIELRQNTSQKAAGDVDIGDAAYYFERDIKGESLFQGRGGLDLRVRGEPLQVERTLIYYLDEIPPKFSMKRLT
Test: ELISA, Trop-2-mFc coated at 1 μg/ml, detection with HRP-anti human IgG(H+L)

EC50: 9.91 nM
B1: 疏水性改造TROP-2抗体M1 (antibody, human IgG1, kappa, V domains shown)
VH: QVQLQQSGSELKKPGASVKVSCKASGYTFTNYGMNWVKQAPGQGLKWMGWINTDSGEPTYTDDFKGRFAFSLDTSVSTAYLQISSLKADDTAVYFCARGGFGSSYWYFDVWGQGSLVTVSS
VL: DIQLTQSPSSLSASVGDRVSITCKASQDVSSAVAWYQQKPGKAPKLLIYSASYRYTGVPDRFSGSGSGTDFTLTISSLQPEDFAVYYCQQHYSTPLTFGAGTKVEIKR
notes: Humanized anti-Trop-2 antibody derived from Sacituzumab by hydrophilic CDR mutations; expressed in CHO-S cells, purified on protein A

EC50: 13.1 nM
B2: Sacituzumab抗体 (antibody, V domains shown)
VH: B1 VH with D54Y, S55T
VL: B1 VL with S31I, S93I

EC50: 10.8 nM
B3: 疏水性改造TROP-2抗体M3 (antibody, human IgG1, kappa, V domains shown)
VH: B1 VH
VL: B1 VL with S31I
notes: as for B1

EC50: 13.9 nM
B4: 疏水性改造TROP-2抗体M2 (antibody, human IgG1, kappa, V domains shown)
VH: B1 VH
VL: B1 VL with S93I
notes: as for B1
